Source: US20240301076A1 (CEPHALON, published 2024)
Residue numbers refer to the chain shown, from its start. Names and notes keep the numbering of the source.

T1: human CXCR2 (human, UniProt P25025 1-360)
T1 construct: also called CXC chemokine receptor 2; hCXCR2
T1 sequence: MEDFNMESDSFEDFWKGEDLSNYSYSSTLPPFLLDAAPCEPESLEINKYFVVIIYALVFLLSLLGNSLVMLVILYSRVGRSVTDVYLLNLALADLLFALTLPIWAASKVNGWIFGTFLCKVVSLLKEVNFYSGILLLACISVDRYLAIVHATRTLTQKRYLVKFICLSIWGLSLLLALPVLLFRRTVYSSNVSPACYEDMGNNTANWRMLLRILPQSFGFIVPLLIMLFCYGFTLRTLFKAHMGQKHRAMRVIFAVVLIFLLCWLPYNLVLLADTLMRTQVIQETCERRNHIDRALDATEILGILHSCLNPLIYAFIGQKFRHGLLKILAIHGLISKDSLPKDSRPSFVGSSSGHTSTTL

B1: BKO-4A8 variant VH Y102K (antibody, human IgG4 S228P, lambda, V domains shown)
VH: EVQLLESGGGLVQPGGSLRLSCAASGFTFSSSTMSWVRQAPGKGLEWVSAISGRGRNTYYADSVKGRFTISRDNSRNTLYLQMNSLRAEDTAVYYCAIQMGKWGQGILVTVSS
VL: QSALTQPPSASGSPGQSVTISCIGTSSDVGGYNYVSWYQQHPDKAPKLMIYEVNKRPSGVPDRFSGSKSGNTASLTVSGLQAEDEADYYCSSYAGNNNFGVFGGGTKLTVLG
notes: IgG4 S228P, lambda; parental light chain; also called 4A8 VH Y102K
B2: BKO-4A8 variant VH Y102S (antibody, human IgG4 S228P, lambda, V domains shown)
VH: B1 VH with K102S
VL: B1 VL
notes: IgG4 S228P, lambda; parental light chain; also called 4A8 VH Y102S
B3: BKO-4A8 variant VL E50D (antibody, human IgG4 S228P, lambda, V domains shown)
VH: B1 VH with K102Y
VL: B1 VL with E52D
notes: IgG4 S228P, lambda; parental heavy chain; also called 4A8 VL E50D
B4: BKO-4A8 variant VL K53A (antibody, human IgG4 S228P, lambda, V domains shown)
VH: B1 VH with K102Y
VL: B1 VL with K55A
notes: IgG4 S228P, lambda; parental heavy chain; also called 4A8 VL K53A
B5: BKO-4A8 variant VL K53D (antibody, human IgG4 S228P, lambda, V domains shown)
VH: B1 VH with K102Y
VL: B1 VL with K55D
notes: IgG4 S228P, lambda; parental heavy chain; also called 4A8 VL K53D
B6: BKO-4A8 variant VL K53H (antibody, human IgG4 S228P, lambda, V domains shown)
VH: B1 VH with K102Y
VL: B1 VL with K55H
notes: IgG4 S228P, lambda; parental heavy chain; also called 4A8 VL K53H
B7: BKO-4A8 variant VL N52D (antibody, human IgG4 S228P, lambda, V domains shown)
VH: B1 VH with K102Y
VL: B1 VL with N54D
notes: IgG4 S228P, lambda; parental heavy chain; also called 4A8 VL N52D
B8: BKO-4A8 variant VL N94A (antibody, human IgG4 S228P, lambda, V domains shown)
VH: B1 VH with K102Y
VL: B1 VL with N96A
notes: IgG4 S228P, lambda; parental heavy chain; also called 4A8 VL N94A
B9: BKO-4A8 variant VL N94L (antibody, human IgG4 S228P, lambda, V domains shown)
VH: B1 VH with K102Y
VL: B1 VL with N96L
notes: IgG4 S228P, lambda; parental heavy chain; also called 4A8 VL N94L
B10: BKO-4A8 variant VL N94W (antibody, human IgG4 S228P, lambda, V domains shown)
VH: B1 VH with K102Y
VL: B1 VL with N96W
notes: IgG4 S228P, lambda; parental heavy chain; also called 4A8 VL N94W
B11: BKO-4A8 variant VL N95aD (antibody, human IgG4 S228P, lambda, V domains shown)
VH: B1 VH with K102Y
VL: B1 VL with N98D
notes: IgG4 S228P, lambda; parental heavy chain; also called 4A8 VL N95aD
B12: BKO-4A8 variant VL N95aH (antibody, human IgG4 S228P, lambda, V domains shown)
VH: B1 VH with K102Y
VL: B1 VL with N98H
notes: IgG4 S228P, lambda; parental heavy chain; also called 4A8 VL N95aH
B13: BKO-4A8 variant VL N95aK (antibody, human IgG4 S228P, lambda, V domains shown)
VH: B1 VH with K102Y
VL: B1 VL with N98K
notes: IgG4 S228P, lambda; parental heavy chain; also called 4A8 VL N95aK
B14: BKO-4A8 variant VL N95aL (antibody, human IgG4 S228P, lambda, V domains shown)
VH: B1 VH with K102Y
VL: B1 VL with N98L
notes: IgG4 S228P, lambda; parental heavy chain; also called 4A8 VL N95aL
B15: BKO-4A8 variant VL N95aY (antibody, human IgG4 S228P, lambda, V domains shown)
VH: B1 VH with K102Y
VL: B1 VL with N98Y
notes: IgG4 S228P, lambda; parental heavy chain; also called 4A8 VL N95aY
B16: BKO-4A8 variant VL R54Q (antibody, human IgG4 S228P, lambda, V domains shown)
VH: B1 VH with K102Y
VL: B1 VL with R56Q
notes: IgG4 S228P, lambda; parental heavy chain; also called 4A8 VL R54Q
B17: BKO-4A8 variant VL V97A (antibody, human IgG4 S228P, lambda, V domains shown)
VH: B1 VH with K102Y
VL: B1 VL with V101A
notes: IgG4 S228P, lambda; parental heavy chain; also called 4A8 VL V97A
B18: BKO-4A8 variant VL V97K (antibody, human IgG4 S228P, lambda, V domains shown)
VH: B1 VH with K102Y
VL: B1 VL with V101K
notes: IgG4 S228P, lambda; parental heavy chain; also called 4A8 VL V97K
B19: BKO-4A8 variant VL Y91A (antibody, human IgG4 S228P, lambda, V domains shown)
VH: B1 VH with K102Y
VL: B1 VL with Y93A
notes: IgG4 S228P, lambda; parental heavy chain; also called 4A8 VL Y91A

Target: T1, human CXCR2
Assay: flow cytometry, CXCR2-transfected Expi293F cells
Description: Harvested cells were resuspended in FACS buffer (1×PBS+0.5% (w/v) bovine serum albumin (BSA)+2 mM EDTA pH 7.2). Approximately 2×10⁵ cells were added per well in a 96-well round-bottomed plate. Cells were pelleted by centrifugation at 400 g for 5 mins at 4° C. and supernatants discarded. 25 μL of each test antibody or control antibody was added to the cells and incubated for 30 minutes at 4° C. Cells were washed twice in 100 μL FACS buffer followed by centrifugation at 400 g for 5 mins at 4° C.
For detection, 50 μL of secondary antibody (Table 2) was added to relevant samples. Commercially available antibodies that bound to transfected CXCR family members were used as positive controls to ensure that the cells were expressing the receptors. Cells were washed twice in 200 μL of FACS buffer followed by centrifugation at 400 g for 5 mins at 4° C. Before sample acquisition, cells were resuspended in 100 μL of FACS buffer. Samples were acquired using the high throughput sampler on a FACSCanto™ II cytometer (Beckton-Dickinson).
Each variant heavy chain was co-expressed with the parental light chain and vice versa.

Row | Binder | Fold change in binding relative to BKO-4A8 [fold]
1 | B1 | 1.3
2 | B2 | 1.5
3 | B3 | 2
4 | B4 | 1.4
5 | B5 | 1.4
6 | B6 | 1.4
7 | B7 | 1.7
8 | B8 | 1
9 | B9 | 0.88
10 | B10 | 0.63
11 | B11 | 2.3
12 | B12 | 1.3
13 | B13 | 1
14 | B14 | 1.7
15 | B15 | 1.7
16 | B16 | 1.6
17 | B17 | 1.7
18 | B18 | 1
19 | B19 | 1.7
